Test system: peptide library, one residue held at a place counted from the S/T acceptor
Test: relative phosphorylation of the sub-library (ratio to the mean residue at this position); higher = residue favoured
Settings: human
In short: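 Human or orthologue kinase constructs, purified and recombinant, were incubated under kinase-specific conditions in 384-well plates with biotinylated degenerate peptide sub-libraries. Each sub-library fixed one residue at one position around a central Ser/Thr. Incubations lasted 90 min with peptides at 50 μM and 50 μM ATP spiked with γ-32P-ATP, after which spots on streptavidin membranes were phosphorimaged and quantified by densitometry. Relative sub-library phosphorylation is a ratio to the mean residue at that position.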

CDC7, construct: Full length, sequence (O00311 whole entry, looked up): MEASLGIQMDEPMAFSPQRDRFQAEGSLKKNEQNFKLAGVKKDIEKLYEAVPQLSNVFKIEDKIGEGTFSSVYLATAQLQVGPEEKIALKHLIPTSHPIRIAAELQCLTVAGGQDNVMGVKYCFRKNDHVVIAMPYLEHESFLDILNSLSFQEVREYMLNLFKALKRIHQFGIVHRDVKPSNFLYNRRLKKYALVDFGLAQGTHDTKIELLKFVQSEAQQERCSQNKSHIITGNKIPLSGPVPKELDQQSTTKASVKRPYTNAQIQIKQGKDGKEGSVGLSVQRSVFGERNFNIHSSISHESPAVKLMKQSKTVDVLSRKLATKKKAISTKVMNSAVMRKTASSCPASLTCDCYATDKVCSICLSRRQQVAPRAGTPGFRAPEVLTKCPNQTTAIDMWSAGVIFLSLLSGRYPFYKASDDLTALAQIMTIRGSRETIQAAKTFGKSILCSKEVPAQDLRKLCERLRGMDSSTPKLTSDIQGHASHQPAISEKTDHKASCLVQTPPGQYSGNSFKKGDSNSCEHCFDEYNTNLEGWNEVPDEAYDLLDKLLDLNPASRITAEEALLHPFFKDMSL

## CDC7, construct: Full length (from UniProt O00311)
A fixed, at +1
  relative phosphorylation: 0.668
A fixed, at +2
  relative phosphorylation: 1.31
A fixed, at +3
  relative phosphorylation: 0.87
A fixed, at +4
  relative phosphorylation: 0.939
A fixed, at -1
  relative phosphorylation: 1.13
A fixed, at -2
  relative phosphorylation: 1.05
A fixed, at -3
  relative phosphorylation: 0.87
A fixed, at -4
  relative phosphorylation: 0.99
A fixed, at -5
  relative phosphorylation: 1.26
D fixed, at +1
  relative phosphorylation: 2.92
D fixed, at +2
  relative phosphorylation: 0.854
D fixed, at +3
  relative phosphorylation: 2.1
D fixed, at +4
  relative phosphorylation: 0.91
D fixed, at -1
  relative phosphorylation: 0.674
D fixed, at -2
  relative phosphorylation: 1.19
D fixed, at -3
  relative phosphorylation: 1.06
D fixed, at -4
  relative phosphorylation: 1.27
D fixed, at -5
  relative phosphorylation: 0.99
E fixed, at +1
  relative phosphorylation: 4.74
E fixed, at +2
  relative phosphorylation: 0.689
E fixed, at +3
  relative phosphorylation: 1.03
E fixed, at +4
  relative phosphorylation: 0.832
E fixed, at -1
  relative phosphorylation: 0.819
E fixed, at -2
  relative phosphorylation: 1.13
E fixed, at -3
  relative phosphorylation: 1.15
E fixed, at -4
  relative phosphorylation: 1.04
E fixed, at -5
  relative phosphorylation: 0.856
F fixed, at +1
  relative phosphorylation: 0.577
F fixed, at +2
  relative phosphorylation: 0.712
F fixed, at +3
  relative phosphorylation: 1.35
F fixed, at +4
  relative phosphorylation: 1.04
F fixed, at -1
  relative phosphorylation: 1.04
F fixed, at -2
  relative phosphorylation: 0.895
F fixed, at -3
  relative phosphorylation: 0.91
F fixed, at -4
  relative phosphorylation: 0.949
F fixed, at -5
  relative phosphorylation: 0.988
G fixed, at +1
  relative phosphorylation: 0.629
G fixed, at +2
  relative phosphorylation: 1.69
G fixed, at +3
  relative phosphorylation: 1.37
G fixed, at +4
  relative phosphorylation: 1.02
G fixed, at -1
  relative phosphorylation: 1.11
G fixed, at -2
  relative phosphorylation: 0.778
G fixed, at -3
  relative phosphorylation: 1
G fixed, at -4
  relative phosphorylation: 0.929
G fixed, at -5
  relative phosphorylation: 0.934
H fixed, at +1
  relative phosphorylation: 0.513
H fixed, at +2
  relative phosphorylation: 0.887
H fixed, at +3
  relative phosphorylation: 1.02
H fixed, at +4
  relative phosphorylation: 1.08
H fixed, at -1
  relative phosphorylation: 1
H fixed, at -2
  relative phosphorylation: 0.787
H fixed, at -3
  relative phosphorylation: 0.836
H fixed, at -4
  relative phosphorylation: 0.977
H fixed, at -5
  relative phosphorylation: 1.09
I fixed, at +1
  relative phosphorylation: 0.549
I fixed, at +2
  relative phosphorylation: 0.834
I fixed, at +3
  relative phosphorylation: 0.864
I fixed, at +4
  relative phosphorylation: 1.01
I fixed, at -1
  relative phosphorylation: 0.485
I fixed, at -2
  relative phosphorylation: 1.07
I fixed, at -3
  relative phosphorylation: 0.849
I fixed, at -4
  relative phosphorylation: 0.82
I fixed, at -5
  relative phosphorylation: 0.93
K fixed, at +1
  relative phosphorylation: 0.444
K fixed, at +2
  relative phosphorylation: 0.596
K fixed, at +3
  relative phosphorylation: 0.561
K fixed, at +4
  relative phosphorylation: 0.769
K fixed, at -1
  relative phosphorylation: 1.31
K fixed, at -2
  relative phosphorylation: 0.72
K fixed, at -3
  relative phosphorylation: 0.802
K fixed, at -4
  relative phosphorylation: 0.909
K fixed, at -5
  relative phosphorylation: 0.954
L fixed, at +1
  relative phosphorylation: 0.563
L fixed, at +2
  relative phosphorylation: 1.02
L fixed, at +3
  relative phosphorylation: 0.874
L fixed, at +4
  relative phosphorylation: 0.984
L fixed, at -1
  relative phosphorylation: 0.982
L fixed, at -2
  relative phosphorylation: 1.4
L fixed, at -3
  relative phosphorylation: 0.933
L fixed, at -4
  relative phosphorylation: 0.943
L fixed, at -5
  relative phosphorylation: 0.926
M fixed, at +1
  relative phosphorylation: 0.765
M fixed, at +2
  relative phosphorylation: 0.893
M fixed, at +3
  relative phosphorylation: 0.676
M fixed, at +4
  relative phosphorylation: 0.932
M fixed, at -1
  relative phosphorylation: 1.18
M fixed, at -2
  relative phosphorylation: 1.11
M fixed, at -3
  relative phosphorylation: 0.894
M fixed, at -4
  relative phosphorylation: 0.921
M fixed, at -5
  relative phosphorylation: 0.95
N fixed, at +1
  relative phosphorylation: 0.691
N fixed, at +2
  relative phosphorylation: 1.13
N fixed, at +3
  relative phosphorylation: 0.897
N fixed, at +4
  relative phosphorylation: 0.878
N fixed, at -1
  relative phosphorylation: 0.884
N fixed, at -2
  relative phosphorylation: 0.715
N fixed, at -3
  relative phosphorylation: 0.888
N fixed, at -4
  relative phosphorylation: 0.955
N fixed, at -5
  relative phosphorylation: 0.979
P fixed, at +1
  relative phosphorylation: 0.459
P fixed, at +2
  relative phosphorylation: 1.84
P fixed, at +3
  relative phosphorylation: 0.945
P fixed, at +4
  relative phosphorylation: 1.15
P fixed, at -1
  relative phosphorylation: 1.01
P fixed, at -2
  relative phosphorylation: 1.64
P fixed, at -3
  relative phosphorylation: 1.06
P fixed, at -4
  relative phosphorylation: 1.11
P fixed, at -5
  relative phosphorylation: 0.914
Q fixed, at +1
  relative phosphorylation: 1.31
Q fixed, at +2
  relative phosphorylation: 0.756
Q fixed, at +3
  relative phosphorylation: 0.694
Q fixed, at +4
  relative phosphorylation: 0.782
Q fixed, at -1
  relative phosphorylation: 0.781
Q fixed, at -2
  relative phosphorylation: 0.749
Q fixed, at -3
  relative phosphorylation: 0.848
Q fixed, at -4
  relative phosphorylation: 0.866
Q fixed, at -5
  relative phosphorylation: 0.77
R fixed, at +1
  relative phosphorylation: 0.472
R fixed, at +2
  relative phosphorylation: 0.816
R fixed, at +3
  relative phosphorylation: 0.506
R fixed, at +4
  relative phosphorylation: 0.723
R fixed, at -1
  relative phosphorylation: 1.11
R fixed, at -2
  relative phosphorylation: 1.06
R fixed, at -3
  relative phosphorylation: 1.65
R fixed, at -4
  relative phosphorylation: 0.907
R fixed, at -5
  relative phosphorylation: 1.06
V fixed, at +1
  relative phosphorylation: 0.612
V fixed, at +2
  relative phosphorylation: 0.737
V fixed, at +3
  relative phosphorylation: 0.761
V fixed, at +4
  relative phosphorylation: 0.894
V fixed, at -1
  relative phosphorylation: 0.671
V fixed, at -2
  relative phosphorylation: 0.988
V fixed, at -3
  relative phosphorylation: 0.856
V fixed, at -4
  relative phosphorylation: 0.935
V fixed, at -5
  relative phosphorylation: 0.943
W fixed, at +1
  relative phosphorylation: 0.567
W fixed, at +2
  relative phosphorylation: 1.44
W fixed, at +3
  relative phosphorylation: 1.23
W fixed, at +4
  relative phosphorylation: 1.48
W fixed, at -1
  relative phosphorylation: 1.59
W fixed, at -2
  relative phosphorylation: 0.854
W fixed, at -3
  relative phosphorylation: 1.33
W fixed, at -4
  relative phosphorylation: 1.36
W fixed, at -5
  relative phosphorylation: 1.28
Y fixed, at +1
  relative phosphorylation: 0.523
Y fixed, at +2
  relative phosphorylation: 0.796
Y fixed, at +3
  relative phosphorylation: 1.25
Y fixed, at +4
  relative phosphorylation: 1.58
Y fixed, at -1
  relative phosphorylation: 1.23
Y fixed, at -2
  relative phosphorylation: 0.884
Y fixed, at -3
  relative phosphorylation: 1.06
Y fixed, at -4
  relative phosphorylation: 1.12
Y fixed, at -5
  relative phosphorylation: 1.18
pThr fixed, at +1
  relative phosphorylation: 2.38
pThr fixed, at +2
  relative phosphorylation: 0.801
pThr fixed, at +3
  relative phosphorylation: 1.41
pThr fixed, at +4
  relative phosphorylation: 1.34
pThr fixed, at -1
  relative phosphorylation: 0.583
pThr fixed, at -2
  relative phosphorylation: 1.12
pThr fixed, at -3
  relative phosphorylation: 1.46
pThr fixed, at -4
  relative phosphorylation: 1.13
pThr fixed, at -5
  relative phosphorylation: 0.831
pTyr fixed, at +1
  relative phosphorylation: 0.631
pTyr fixed, at +2
  relative phosphorylation: 0.537
pTyr fixed, at +3
  relative phosphorylation: 0.792
pTyr fixed, at +4
  relative phosphorylation: 1.15
pTyr fixed, at -1
  relative phosphorylation: 0.684
pTyr fixed, at -2
  relative phosphorylation: 0.717
pTyr fixed, at -3
  relative phosphorylation: 1.06
pTyr fixed, at -4
  relative phosphorylation: 0.937
pTyr fixed, at -5
  relative phosphorylation: 0.844
